This is an account of results in US20030186853A1, “Novel corticotropin-releasing hormone analogs” (The Regents of the University of California, Office of …, published 2003).

Assay [1] deals with T1, CRH1 receptor (mouse, UniProt P35347).
The target in assay [2] is T1, CRH1 receptor. Description: cell-based or functional assay.

Like-named read-outs stand apart in the source and are kept apart here. Non-standard residues stand in square brackets, D forms with d. No end group written: not given here.

As to “acetyl-cyclo(30-33)[D-Phe^12, Nle^18, D-Glu^20, Nle^21, Glu^30, D-Ala^32]-urotensin I(4-41) (peptide)”, in the assay with CRH1 receptor [1], the EC50, inhibition of proliferation of Cloudman melanoma cells (cell count) is 0.36 picomolar.
Turning to SEEP[dP]ISLDLTFHLLREVLEMARAEQLAQQAHSNRKLMEII-NH2 [[D-Pro^5]-CRH], the “EC50, inhibition of proliferation of Cloudman melanoma cells (cell count)” value in the assay with CRH1 receptor [2] was found to be 82 picomolar.
With DNPSLSIDLTFHLLRTLLELARTQSQRERAEQNRIIFDSV-NH2 (ligand) [Urocortin (human)], in the assay with CRH1 receptor [2], the “EC50, inhibition of proliferation of Cloudman melanoma cells (cell count)” value worked out at 9.5 picomolar.
The same measure, in the same setting: to SEEPPISLDLTFHLLREVLEMARAEQLAQQAHSNRKLMEII-NH2 (ligand) [Corticotropin-releasing hormone (CRH), human/rat] belongs 8.6 picomolar; to SEEPPISLDLTFHLLREVL[dE]MARAEQLAQQAHSNRKLMEII-NH2 [[D-Glu^20]-CRH], 16 picomolar.
